Patent publication US20170002084A1

How the values were obtained:
[1] = target: Canine CD20 (canine) (UniProt Q3C2E2); assay: cell-based or functional assay
[2] = target: Canine CD20 (canine) (UniProt Q3C2E2); assay: FACS on CHO cells expressing recombinant canine CD20

Sequence of Canine CD20 (canine) (Q3C2E2 other isoform, or with tags, fused parts or gaps): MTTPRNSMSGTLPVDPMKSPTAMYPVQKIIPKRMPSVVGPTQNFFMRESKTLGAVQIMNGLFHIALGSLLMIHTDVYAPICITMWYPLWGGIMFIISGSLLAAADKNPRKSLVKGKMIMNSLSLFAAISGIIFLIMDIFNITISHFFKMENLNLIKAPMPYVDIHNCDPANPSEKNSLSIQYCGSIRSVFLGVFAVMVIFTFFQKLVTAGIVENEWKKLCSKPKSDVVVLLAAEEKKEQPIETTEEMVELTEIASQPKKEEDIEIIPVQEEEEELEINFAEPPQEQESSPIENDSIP

Reduction (%) of cell proliferation of lymphoma cells [1]: 17.5%
Kd [2]: 77.4 nM
B1: anti-canine CD20 antibody CD20-4 (antibody, part only; not given: light chain, V domains shown, part only)
VH: EVQLQQSVAELVRPGASVTLSCKASGYTFTDYEMHWVKQTPVHGLEWIGEIDPETGGTAYNQKFKGKAILTADKSSSTAYMELRSLTSEDSAVYYCTEYAMDYWGQGTSVTVSS
